The results in this text go back to patent US20180251570A1 (Bayer, published 2018).

The experiment concerns the target T1, human tissue factor pathway inhibitor (TFPI) (human, UniProt P10646 29-304, limits assumed).
T1 construct: also called human TFPI (American Diagnostica)
T1 sequence (looked up): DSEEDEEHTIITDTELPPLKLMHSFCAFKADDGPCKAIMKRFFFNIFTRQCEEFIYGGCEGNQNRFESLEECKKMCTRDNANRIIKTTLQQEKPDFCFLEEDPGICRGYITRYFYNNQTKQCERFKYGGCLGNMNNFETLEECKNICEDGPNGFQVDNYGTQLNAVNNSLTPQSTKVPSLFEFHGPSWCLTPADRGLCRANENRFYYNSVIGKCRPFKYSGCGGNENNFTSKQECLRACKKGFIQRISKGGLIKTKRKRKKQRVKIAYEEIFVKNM
The experiment can be described thus: BIACORE kinetics, CM4 chip with low density of amine-coupled human TFPI, antibody injected. The protocol: A CM4 sensor chip was immobilized with a low density of human TFPI using an amine coupling kit (GE HealthCare). Kinetic assays of parental IgG and IgG-linker1 were conducted using different concentration of the antibodies, followed by regeneration with pH 1.5 glycine buffer. The parental IgG and IgG-linker1 antibodies at a concentration of 1 μg were digested with 1 unit of biotinylated thrombin (Novagen) for 1 hr at 37° C. The antibodies with or without digestion were injected to a BIACORE™ system for TFPI-binding analysis.
For orientation: Surface plasmon resonance follows binding to a sensor surface in real time, without labels.

B1: parental IgG (parental anti-TFPI antibody) (antibody)
heavy: EVQLVESGGGLVQPGGSLRLSCAASGFTFSSYGMDWVRQAPGKGLEWVSSIRGSRGSTYYADSVKGRFTISRDNSKNTLYLQMNSLRAEDTAVYYCARLYRYWFDYWGQGTLVTVSSASTKGPSVFPLAPCSRSTSESTAALGCLVKDYFPEPVTVSWNSGALTSGVHTFPAVLQSSGLYSLSSVVTVPSSNFGTQTYTCNVDHKPSNTKVDKTVERKCCVECPPCPAPPVAGPSVFLFPPKPKDTLMISRTPEVTCVVVDVSHEDPEVQFNWYVDGVEVHNAKTKPREEQFNSTFRVVSVLTVVHQDWLNGKEYKCKVSNKGLPAPIEKTISKTKGQPREPQVYTLPPSREEMTKNQVSLTCLVKGFYPSDIAVEWESNGQPENNYKTTPPMLDSDGSFFLYSKLTVDKSRWQQGNVFSCSVMHEALHNHYTQKSLSLSPG
light: SYELTQPPSVSVSPGQTARITCSGDNLPKYYAHWYQQKPGQAPVVVIFYDVNRPSGIPERFSGSNSGNTATLTISGTQAMDEADYYCQAWWSSTPVFGGGTKLTVLGQPKAAPSVTLFPPSSEELQANKATLVCLISDFYPGAVTVAWKADSSPVKAGVETTTPSKQSNNKYAASSYLSLTPEQWKSHRSYSCQVTHEGSTVEKTVAPTECS
notes: Expressed in HEK293 6E cells; also called Parent IgG; WT antibody
Turning to B1, the kon was 1.54e+06 M⁻¹ s⁻¹.

B2: IgG-linker1 (protease-regulated anti-TFPI IgG, undigested) (antibody)
light: SYELTQPPSVSVSPGQTARITCSGDNLPKYYAHWYQQKPGQAPVVVIFYDVNRPSGIPERFSGSNSGNTATLTISGTQAMDEADYYCQAWWSSTPVFGGGTKLTVLGGGGSLVPRGSGGGGSGQPKAAPSVTLFPPSSEELQANKATLVCLISDFYPGAVTVAWKADSSPVKAGVETTTPSKQSNNKYAASSYLSLTPEQWKSHRSYSCQVTHEGSTVEKTVAPTECS
heavy: EVQLVESGGGLVQPGGSLRLSCAASGFTFSSYGMDWVRQAPGKGLEWVSSIRGSRGSTYYADSVKGRFTISRDNSKNTLYLQMNSLRAEDTAVYYCARLYRYWFDYWGQGTLVTVSSASGGGGSLVPRGSGGGGSTKGPSVFPLAPCSRSTSESTAALGCLVKDYFPEPVTVSWNSGALTSGVHTFPAVLQSSGLYSLSSVVTVPSSNFGTQTYTCNVDHKPSNTKVDKTVERKCCVECPPCPAPPVAGPSVFLFPPKPKDTLMISRTPEVTCVVVDVSHEDPEVQFNWYVDGVEVHNAKTKPREEQFNSTFRVVSVLTVVHQDWLNGKEYKCKVSNKGLPAPIEKTISKTKGQPREPQVYTLPPSREEMTKNQVSLTCLVKGFYPSDIAVEWESNGQPENNYKTTPPMLDSDGSFFLYSKLTVDKSRWQQGNVFSCSVMHEALHNHYTQKSLSLSPG
notes: Expressed in HEK293 6E cells; also called IgG2-linker1
As for B2, the kon worked out at 1.9e+06 M⁻¹ s⁻¹. The kon values of the last two molecules are within 1.5-fold of each other.

The kon is a measure of how fast the partners come together. Low readings indicate slow association, high ones fast association.
